Experimental findings from paper PMC4705477, “Biochemical Characterization of Nonamer Binding Domain of RAG1 Reveals its Thymine Preference with Respect to Length and Position” are described below.

Data set [1] concerns the target T1, NBD (nonamer binding domain of RAG1) (mouse, UniProt P15919 384-461).
T1 sequence: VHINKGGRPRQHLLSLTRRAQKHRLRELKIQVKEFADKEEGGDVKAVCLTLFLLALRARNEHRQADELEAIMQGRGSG
Briefly: EMSA; 5 mM Ca2+; no significant binding; NBD EMSA: 10 mM Tris-HCl pH 7.5, 33 mM KCl, 5 mM CaCl2, 2 mM DTT, 0.1 mg/ml BSA, 6% glycerol, 15 min 30 C; cRAG EMSA: 22.5 mM MOPS-KOH pH 7.0, 20% DMSO, 2.2 mM. Particulars: protein: recombinant; tags: N-terminal His6 (pET28a); label: 5' 32P on DR59; 6 nt T/T bubble, blunt ends. (In general: In EMSA bound probe runs differently from free probe, usually more slowly.)

Data set [2] deals with T1, NBD (nonamer binding domain of RAG1). Briefly: EMSA; 5 mM Ca2+; printed as 'binding constant'; NBD EMSA: 10 mM Tris-HCl pH 7.5, 33 mM KCl, 5 mM CaCl2, 2 mM DTT, 0.1 mg/ml BSA, 6% glycerol, 15 min 30 C; cRAG EMSA: 22.5 mM MOPS-KOH pH 7.0, 20% DMSO, 2.2 mM. The following applies: protein: recombinant; tags: N-terminal His6 (pET28a); label: 5' 32P on AKN3; 5' overhang 1 nt at both ends.

B1: T/T bubble with scrambled nonamer (XXXVII, DR59/DR60) (dsDNA)
DNA 1: GACCTGAGGGCGAGCTTTTTTCGAGTAACTTAAGCGGAGGTCCTGCT
DNA 2: AGCAGGACCTCCGCTTAAGTTACTCGTTTTTTGCTCGCCCTCAGGTC
With B1, in data set [1], the binding result is listed as “no binding”.

B2: 23RSS (II, AKN3/AKN4) (dsDNA)
DNA 1: GATCAGCTGACAGTAGCACAGTGGTAGTACTCCACTCTCTGGCTGTACAAAAACCCTGCT
DNA 2: TAGCAGGGTTTTTGTACAGCCAGAGAGTGGAGTACTACCACTGTGCTACTGTCAGCTGAT
As a reminder, the Kd is the concentration at which binding is half-saturated. As for B2, the Kd in data set [2] came to 13.9 ± 3.3 µM.
